Measurements published in publication PMC2824085, “Identification of Novel Contributions to High-affinity Glycoprotein–Receptor Interactions using Engineered Ligands” (Journal of Molecular Biology, 2010).

Assays:
soybean agglutinin = target: T1, soybean agglutinin (soybean, UniProt P05046 33-285, a single, uniform Man9GlcNAc2 oligosaccharide on each subunit); experiment: SPR; BiaCore 3000, CM5 chip; SBA or its glycopeptide amine-coupled, monomeric CRD of DC-SIGN flowed over; steady state, simple saturation model with linear background; 10 mM Hepes, 150 mM NaCl, 5 mM CaCl2, 0.005% P20, pH 7.4, 25 °C; settings: both partners purified
T1 construct: also called SBA; intact soybean agglutinin
T1 sequence (P05046 33-285): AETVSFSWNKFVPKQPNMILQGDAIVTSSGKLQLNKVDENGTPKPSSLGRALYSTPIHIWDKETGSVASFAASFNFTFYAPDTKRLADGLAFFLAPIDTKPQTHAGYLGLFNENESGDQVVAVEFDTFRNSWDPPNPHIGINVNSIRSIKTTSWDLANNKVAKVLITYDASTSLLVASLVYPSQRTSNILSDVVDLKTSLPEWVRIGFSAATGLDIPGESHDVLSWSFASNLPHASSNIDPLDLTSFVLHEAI

[1] = target: the molecule itself; experiment: cross-linking + SEC; chemical crosslinking and gel filtration of the extracellular domain of MGL expressed in bacteria

| Binder | Kd (soybean agglutinin) [µM] | stoichiometry N [1] |
| --- | --- | --- |
| monomeric carbohydrate-recognition domain (CRD) from DC-SIGN (domain or fragment, UniProt Q9NNX6 250-404, looked up, DC-SIGN, carbohydrate-recognition domain; it calls the CRD monomeric; also called monomeric CRD; dendritic cell-specific intercellular adhesion molecule 3-grabbing nonintegrin CRD) ERLCHPCPWEWTFFQGNCYFMSNSQRNWHDSITACKEVGAQLVVIKSAEEQNFLQLQSSRSNRFTWMGLSDLNQEGTWQWVDGSPLLPSFKQYWNRGEPNNVGEEDCAEFSGNGWNDDKCNLAKFWICKKSAASCSRDEEQFLSPAPATPNPPPA | 4 |  |
| trimeric extracellular domain (ECD) of rat macrophage galactose lectin (MGL) (domain or fragment, extra alanine residue appended at the N-terminus; rat macrophage galactose lectin, extracellular domain from residue 59 to the C-terminus; also called extracellular domain of MGL; source: expressed in bacteria, T7 promoter system) AQNSQLRRDLETLRTTLDNTTSNTKAELQALASRGDSLQTGINSLKVEVDDHGQELQAGRGLSQKVASLESTVEKKEQTLRTDLSEITDRVQQLGKDLKTLTCQLASLKNNGSAVACCPLHWMEHEGSCYWFSQSGKPWPEADKYCQLENSNLVVVNSLAEQNFLQTHMGSVVTWIGLTDQNGPWRWVDGTDYEKGFTHWAPKQPDNWYGHGLGGGEDCAHFTSDGRWNDDVCQRPYRWVCEMKLAKDS |  | 3 |
